Results as given in the DeepSol protein solubility set.

Assay: soluble on expression in E. coli; label from the status in PepcDB or PDB records

Soluble on expression in E. coli, soluble:
MAGHSKWANTRHRKAAQDAKRGKIFTKIIRELVTAAKLGGGDPDANPRLRAAVDKALSNNMTRDTLNRAIARGVGGDDDANMETIIYEGYGPGGTAIMIECLSDNRNRTVAEVRHAFSKCGGNLGTDGSVAYLFSKKGVISFEKGDEDTIMEAALEAGAEDVVTYDDGAIDVYTAWEEMGKVRDALEAAGLKADSAEVSMIPSTKADMDAETAPKLMRLIDMLEDCDDVQEVYHNGEISDEVAATL
MSLNDRTTTHGETEPRSEQPGIRAAAGPGRWHDVELMAYKPDDAAPFRSVTRQVLFSDLRLGCEWRYFEVAEGGYSTLERHQHVHATMIHRGRGQCLVGDVISDVAVGDLVFIPPMTWHQFRANAGDVLGFLCLVNADRDRPQLPRPDELAVLRQNKAIASFIGAEAEGHHHHHH

Soluble on expression in E. coli, not soluble:
MAATMNEGNAQHAWDLMKKITFAMLATRDGEKIRSRPMAAYVRPEEGAIYFLTDVRRHKDEEIAQDHHVNLGFANASAQKYVSVTGYAAISNDRAKIKELFGTEAKAWWDSADDPNIRVLKVTPEEAEYWDSPGSLISYAKMMVAAATGNRPDLGENAKVAI
MSENNKIILYQDDNEIIRVSVRFSDEDLWLTQNQLAEIYCTTQQNISQHVDNIYKDGELFTEATNKKFLLVRQEGNRQVRRNIDHYNLDMVIALGYRVQSQVATRFRRWATQRLHEYIQKGFAMDDERLKQGGNRYFRELLQRIRDIRSSERNFYQQVTDIYATATDYDPRDEMTKMFFATVQNKLHYAVHENTAAEVIYNRVDNEKPFVGMTNFKGNYVTKDDVKIAKNYLSEIELQRLNLLVSGFLDFAEFQALEMNPMTMKDWIEALDNQIIAHKRKVLIDKGRISHKQAIEKAEKEFAIYRKREMDLLESDFDKEIKRLKDKNDNNPN
DGTLVVDIDGCISHANPAAETLLAGPEESLVGQQVEAVIPTWDSLTVDDEQADWSELALSVDGQQRFVELEVTPFADRF
KALVSIQASNIPKTAYTATDFVDMNSYSYNNITTSLPGNYADFAVIEVNLNLKNQRDQQILHDFVKPAIKAYKALGDTLELFSAKPLNQFIEQNYYLLGYPVINKGNNTANLLLAQQKSFDHNNSDHNQKSQWFTK
MGSDKIHHHHHHMDKDERLHYLDSLERLRGSKVLVYFAYTPLDDSILVPLYEQLKAIGHTEKIDLLLHSYGGAVDTPYKVVMLIREFCNEFGVIVPFVAKSAASMLVLGADEVVMGPISELGPIDPLIKHPIYKELWVPVQAIRYCIDYLQRSIESNPNPELVTGIITPMINKLDPWLIGDYEKALKASHQYAEALLSRYMLKDNPELVPVVTRALTEGYFSHGYPIGRQEAKELGLRVTEAEDELWDVIWSLYRGYEELFSTCDSGDRV
MNHQYQDLIDIFNQTFYADYNTKLELGGDEPIYLPADERVSYHRIIFARGFYASALHEIAHWCVAGPQRRLLEDFGYWYEPDGRTAQVQAEFEKVEIRPQAYEWILAISAGFPFTVSCDNLNGDFEPDRLAFMSKVHSEVLKILEQGLPQRVKMLSEALRAFYQTPALLPEHFVVK
MKATPAQVPMKERIKEVATDMLIAHGSSGFRFQQIAQALDCTRGNIHYHYRHKHELVEDVTIEYCQRTIGHFDQIWLSDSTLSQKIQLSMQFNEMRYLKRNPQGDTSHPWSLIARMRLESALITPAAREALARYSHELQRSVVAGVRRAVEKGELRPDTPVEMVALPIIEMANSADPITRDAGRFDRLRQMYQAVDRLIHDAYGMAGHRPAP
MGSDKIHHHHHHVTTVTRSFDDAWRRWIAENLLLDAPPSALHGALLGHGFDAADVTREIEAALASPYFHGAARLRNRLRKREWILSVYSELNRMRAASGVIERCERLSRDAFFEQYYFQNRPVIITGAFDFWPACSRWNWDYLRRQCGDCEVEVQFGRESDANYEINQPRLTRMMRFADYVDLVEQRGPTNDFYMTANNTSRNRAALAALWSDVPPIDAYLDAASPDTGFFWMGPAGTKTPFHHDLTNNFMAQVIGRKHIKLVPLSDTPYMANHLHCYSRVDGGAIDFDSFPSMRQAQLIECTLAPGELLFLPVGWWHYVEGIDASVTMTFTNFLRSNDFSRRYDTYHEL
MSAFQGNMFVLVNVDQHRDLIGPIINQLVADYGTPVSIVDNIQKICPKCSCTPHANPDSSSVPTTTSSDEHQEEPPTPKTIAPAPIATPVLKPLLPQRESIVSNGIHPVVVKRKQSIAEEIDTPEIKKSRVVEPVKVKTETIILDDDDGNVLDTVLAALQNGNHEMQFTGSGGSSDDGASNSSNIYDVDDEDYGTSQWNPDFLTNFITSQPNIFSVTGQNIKSSPSKNAGQTPNGKRQVPPMLTVNGKTRRGRIVYSTQELNILEKYYEEDPNACADPRKRETMCKTLSIDYHRLKVWFQNRRRKDKVRSQEEAATTFNGLDYSEDS
MVSAMSNIWSNWSGFVTAEPRLIASPADAGELGDLVRTAPGPVRVVGAGHSFTPLVKSQGTILSLEKLEGLVSHDPQKHQARVKAGTRLGPLMHILQGIGQGLPNMGDIDRQAIGGALGTATHGSGPTLGAYHTQLETVQIVDGLGKVRDFTRAGDQDMIHAIGVALGAFGVLSEVTLNNIATYRLRRRKWVLPIGDMLRDFEKMMTAHRSAEFYYIPFSGYAQFIASDFSTEATTTRPTDDDEGSLRTLRRLRTGLAWLPSLRRRLILGAVAKVPSEDYVQDWLNVYASDRQTKFNEMEYHLPFEEGPKALAEIIELTEKRFPEVYFPMEVRSVAPDKFWLSPFYNRPTCSIAIHHDAASDPLPFMQAAEPIFRRYGGRPHWGKMHSLKAADFKKLYPRWDDAMAVRRDIDPQNRFVSPYMAGLFGIEPSPFGIDPLEHHHHHH
GTREQALGPALSFSTEGEFLKVRILDPVADSRRYNEEFKAQGLDIELVLIPASPSQVGQADGQLYSGSNTRQRIRFESVPAGCVEAATYPCVPEFTIPKDYRGTARFGINRAAAPGEQYAATGALNGRDEPLEGIQWLNRPVGEISAILRQRGFSITYRWPTGRQNPNATPPPTWYVIEPSFARQNNLVELEVSPRPMK
MNAGKKGVIYTCITGGYDELLNHTFISPEWDYVCFSDDMGINNEKNAQWEIRPLRFEKLDDVRNQRWHKLHPHLLFPESGLSLWVDGNVDILDGEIFHDIDRALNANLLIAPSLHPERNCIYDEFDACRQLGKDDPDVMGRQEYLIKKDGFPKAKGLFETNIIFRCHSHPMVITIMEEWWYWVEQYSRRDQLGFTYVLWKNNYTVEPLSPVSYRFSPGVRFRYGAFHITKEQLIKEKAALEIKVQRFEALICGRLVKVLYKIRKSTVKRWCRVKMQLLNSLCCRKLEHHHHHH
MISRVAQMYFSEHKRQAEIAQHLNLSQATVSRMLKRAEAEGIVRTSIIPPPGTYSDLEAQLRERFDLPEAIVVDCSEDRDGAIMARIGEAAAHFLEVTLSQNEIIGVSSWSQTIFKMVENIHPLKGAKARYIVQTLGGMGDPSVQTHATQITTRLARLTEAEPKLLPVPGVATSREAKLLMLADPFVRETIDLFGSITLAIVGVGAVEPSELLARSGNIFSTKELADLAQAGAVGDISLRFFDKDGKPVKTPLDDRVIGLPLENLSNVDRVIALAGGLKKTEAIAGALRTGVIDVLVTDKFTAERLVGQET
HPHVENFTIIGSGFQAETQLEGMITVSHPQSIRVYSRNYDHAKDFASRMSKQFGVDIRPVDNAEAALSDADTVSSITNSTSPVILRKYLGDEYHVNLAGSNYMNRREAEYEVLHDADLVVTEHYDQSMVESAEISEYVKFGGKPVELREIAGRYGEFSGLRRTVFKSMGIGLEDIATAYRVLRNLGIA
MGSDKIHHHHHHMQLYYAPNTISVAVAIALEEAGLAYEAVKIDFAEKQQTTRAYHQINPKGRVPALAVEGGILTETGALLEFIADLAPDADLRPSDPVLQARMREVMFYLASTMHVNHAHKMRGSRWASNPASFKDMARKVPETMAASCEYICNHGLRGPFVLGDTPCLADFYLYVVCTWLEGDGVKLAGFPKLRAFIEAMDARDSVKTVRAKDML
